According to article PMC10611586, “Molecular basis for ubiquitin/Fubi cross-reactivity in USP16 and USP36” (Nature Chemical Biology, 2023):

B1: USP2^258–605 (catalytic domain) (enzyme, human, UniProt O75604 258-605, looked up)
chain: MNSKSAQGLAGLRNLGNTCFMNSILQCLSNTRELRDYCLQRLYMRDLHHGSNAHTALVEEFAKLIQTIWTSSPNDVVSPSEFKTQIQRYAPRFVGYNQQDAQEFLRFLLDGLHNEVNRVTLRPKSNPENLDHLPDDEKGRQMWRKYLEREDSRIGDLFVGQLKSSLTCTDCGYCSTVFDPFWDLSLPIAKRGYPEVTLMDCMRLFTKEDVLDGDEKPTCCRCRGRKRCIKKFSIQRFPKILVLHLKRFSESRIRTSKLTTFVNFPLRDLDLREFASENTNHAVYNLYAVSNHSGTTMGGHYTAYCRSPGTGEWHTFNDSSVTPMSSSQVRTSDAYLLFYELASPPSRM
notes: USP2, human, catalytic domain, residues 258-605; also called recombinant USP2; source: E. coli Rosetta2(DE3)pLacI, purified (HisTrap, 3C cleavage, SEC)
B2: USP16^191–823 (catalytic domain) (enzyme, human, UniProt Q9Y5T5 191-823, looked up)
chain: CQITVKGLSNLGNTCFFNAVMQNLSQTPVLRELLKEVKMSGTIVKIEPPDLALTEPLEINLEPPGPLTLAMSQFLNEMQETKKGVVTPKELFSQVCKKAVRFKGYQQQDSQELLRYLLDGMRAEEHQRVSKGILKAFGNSTEKLDEELKNKVKDYEKKKSMPSFVDRIFGGELTSMIMCDQCRTVSLVHESFLDLSLPVLDDQSGKKSVNDKNLKKTVEDEDQDSEEEKDNDSYIKERSDIPSGTSKHLQKKAKKQAKKQAKNQRRQQKIQGKVLHLNDICTIDHPEDSEYEAEMSLQGEVNIKSNHISQEGVMHKEYCVNQKDLNGQAKMIESVTDNQKSTEEVDMKNINMDNDLEVLTSSPTRNLNGAYLTEGSNGEVDISNGFKNLNLNAALHPDEINIEILNDSHTPGTKVYEVVNEDPETAFCTLANREVFNTDECSIQHCLYQFTRNEKLRDANKLLCEVCTRRQCNGPKANIKGERKHVYTNAKKQMLISLAPPVLTLHLKRFQQAGFNLRKVNKHIKFPEILDLAPFCTLKCKNVAEENTRVLYSLYGVVEHSGTMRSGHYTAYAKARTANSHLSNLVLHGDIPQDFEMESKGQWFHISDTHVQAVPTTKVLNSQAYLLFYERIL
notes: USP16, human, catalytic domain, residues 191-823; also called recombinant USP16; source: E. coli Rosetta2(DE3)pLacI, purified (HisTrap, 3C cleavage, reverse Ni-NTA, anion exchange, SEC)
B3: USP42^70–446 (catalytic domain) (enzyme, human, UniProt Q9H9J4 70-446, looked up)
chain: DKSKPSPQKDQALGDGIAPPQKVLFPSEKICLKWQQTHRVGAGLQNLGNTCFANAALQCLTYTPPLANYMLSHEHSKTCHAEGFCMMCTMQAHITQALSNPGDVIKPMFVINEMRRIARHFRFGNQEDAHEFLQYTVDAMQKACLNGSNKLDRHTQATTLVCQIFGGYLRSRVKCLNCKGVSDTFDPYLDITLEIKAAQSVNKALEQFVKPEQLDGENSYKCSKCKKMVPASKRFTIHRSSNVLTLSLKRFANFTGGKIAKDVKYPEYLDIRPYMSQPNGEPIVYVLYAVLVHTGFNCHAGHYFCYIKASNGLWYQMNDSIVSTSDIRSVLSQQAYVLFYIRSHDVKNGGELTHPTHSPGQSSPRPVISQRVVTNKQ
notes: USP42, human, catalytic domain, residues 70-446; also called recombinant USP42; source: E. coli Rosetta2(DE3)pLacI, purified (HisTrap, 3C cleavage, reverse Ni-NTA, cation exchange)
B4: USP36^81–424 (catalytic domain, shorter construct) (enzyme, human, UniProt Q9P275 81-424, looked up)
chain: ARRQGSEHTYESCGDGVPAPQKVLFPTERLSLRWERVFRVGAGLHNLGNTCFLNATIQCLTYTPPLANYLLSKEHARSCHQGSFCMLCVMQNHIVQAFANSGNAIKPVSFIRDLKKIARHFRFGNQEDAHEFLRYTIDAMQKACLNGCAKLDRQTQATTLVHQIFGGYLRSRVKCSVCKSVSDTYDPYLDVALEIRQAANIVRALELFVKADVLSGENAYMCAKCKKKVPASKRFTIHRTSNVLTLSLKRFANFSGGKITKDVGYPEFLNIRPYMSQNNGDPVMYGLYAVLVHSGYSCHAGHYYCYVKASNGQWYQMNDSLVHSSNVKVVLNQQAYVLFYLRIP
notes: USP36, human, catalytic domain, residues 81-424; also called shorter USP36^81–424 construct; source: E. coli Rosetta2(DE3)pLacI, purified (HisTrap, 3C cleavage, cation exchange)
B5: USP36^81–461 (catalytic domain, longer construct) (enzyme, human, UniProt Q9P275 81-461, looked up)
chain: ARRQGSEHTYESCGDGVPAPQKVLFPTERLSLRWERVFRVGAGLHNLGNTCFLNATIQCLTYTPPLANYLLSKEHARSCHQGSFCMLCVMQNHIVQAFANSGNAIKPVSFIRDLKKIARHFRFGNQEDAHEFLRYTIDAMQKACLNGCAKLDRQTQATTLVHQIFGGYLRSRVKCSVCKSVSDTYDPYLDVALEIRQAANIVRALELFVKADVLSGENAYMCAKCKKKVPASKRFTIHRTSNVLTLSLKRFANFSGGKITKDVGYPEFLNIRPYMSQNNGDPVMYGLYAVLVHSGYSCHAGHYYCYVKASNGQWYQMNDSLVHSSNVKVVLNQQAYVLFYLRIPGSKKSPEGLISRTGSSSLPGRPSVIPDHSKKNIGNGI
notes: also called recombinant USP36; source: E. coli Rosetta2(DE3)pLacI, purified (HisTrap, 3C cleavage, cation exchange)

How the values were obtained:
Conditions in all cases: both partners purified
[1] = target: T1, ubiquitin-PA (untagged, wild type) (human, UniProt P0CG47 1-75, C-terminal propargylamine (PA) warhead); assay: activity-based probe labelling (covalent conjugate), SDS-PAGE; purified protease 2.5 µM and probe 10 µM, 1 h at 37 °C; 20 mM Tris pH 8.0, 300 mM NaCl, 2 mM DTT, 5% glycerol; SDS-PAGE and Coomassie staining
T1 construct: ubiquitin, human, residues 1-75 of the 76-residue ubiquitin; also called Ub-PA; wild-type ubiquitin-PA

[2] = target: T2, Fubi-PA (untagged, wild type) (human, UniProt P62861 1-73, C-terminal propargylamine (PA) warhead); assay: intact protein LC-MS; covalent USP36~probe complexes analysed by intact protein mass spectrometry
T2 construct: Fubi, human, residues 1-73 of the 74-residue Fubi; also called wild-type Fubi-PA; Fubi-based probe
T2 sequence (P62861 1-73): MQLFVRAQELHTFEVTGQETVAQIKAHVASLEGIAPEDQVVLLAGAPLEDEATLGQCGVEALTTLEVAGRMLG

[3] = target: T1, ubiquitin-PA (untagged, wild type); assay: as above

| Binder | binding result [1] | stoichiometry N [2] | stoichiometry N [3] |
| --- | --- | --- | --- |
| B1 | binds | – | – |
| B2 | binds | – | – |
| B3 | binds | – | – |
| B4 | binds | – | – |
| B5 | – | 1 | 1 |
